According to patent US20250145690A1 (US Dept. of Health and Human Services, published 2025):
Numbering of substitutions follows the chain as printed.

Columns and labels:
Experiment in all cases: bead flow cytometry, AUC minus CD4
[1] = target: SARS-CoV-2 spike N-terminal domain (NTD), recombinant (SARS-CoV-2, UniProt P0DTC2 14-305)
[2] = target: SARS-CoV-2 spike receptor binding domain (RBD), recombinant (SARS-CoV-2, UniProt P0DTC2 319-541)
[3] = target: T1, HCoV-229E spike protein (Sino Biological 40605-V08B) (HCoV-229E, UniProt P15423 16-1115)
T1 sequence: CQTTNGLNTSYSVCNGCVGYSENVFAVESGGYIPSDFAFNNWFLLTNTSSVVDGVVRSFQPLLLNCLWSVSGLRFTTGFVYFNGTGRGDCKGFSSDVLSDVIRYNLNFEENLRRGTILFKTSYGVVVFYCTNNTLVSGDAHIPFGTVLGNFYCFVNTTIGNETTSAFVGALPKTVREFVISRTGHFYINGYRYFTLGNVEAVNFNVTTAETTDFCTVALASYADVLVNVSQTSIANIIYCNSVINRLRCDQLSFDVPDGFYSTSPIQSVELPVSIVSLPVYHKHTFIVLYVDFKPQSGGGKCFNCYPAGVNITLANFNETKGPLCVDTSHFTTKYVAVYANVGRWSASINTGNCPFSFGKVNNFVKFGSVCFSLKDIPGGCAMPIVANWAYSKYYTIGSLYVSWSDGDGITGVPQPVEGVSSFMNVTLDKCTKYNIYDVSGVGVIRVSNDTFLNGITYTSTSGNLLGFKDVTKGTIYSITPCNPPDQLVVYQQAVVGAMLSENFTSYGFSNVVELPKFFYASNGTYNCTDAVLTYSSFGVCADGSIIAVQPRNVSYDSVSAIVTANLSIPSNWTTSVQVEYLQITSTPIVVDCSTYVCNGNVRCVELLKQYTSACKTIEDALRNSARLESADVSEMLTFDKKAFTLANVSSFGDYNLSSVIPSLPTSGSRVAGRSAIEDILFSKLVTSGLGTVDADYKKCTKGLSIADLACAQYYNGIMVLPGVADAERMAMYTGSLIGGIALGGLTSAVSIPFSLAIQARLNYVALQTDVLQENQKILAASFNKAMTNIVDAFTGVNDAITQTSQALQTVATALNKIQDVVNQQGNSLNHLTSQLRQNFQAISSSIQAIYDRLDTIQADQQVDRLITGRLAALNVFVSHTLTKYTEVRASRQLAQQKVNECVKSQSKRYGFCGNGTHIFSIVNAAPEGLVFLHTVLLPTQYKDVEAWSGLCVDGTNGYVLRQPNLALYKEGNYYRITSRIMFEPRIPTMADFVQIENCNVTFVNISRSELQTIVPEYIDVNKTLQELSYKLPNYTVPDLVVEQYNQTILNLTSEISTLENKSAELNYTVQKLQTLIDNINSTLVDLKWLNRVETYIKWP

[4] = target: T2, HCoV-NL63 spike protein (Sino Biological 40604-V08B) (HCoV-NL63, UniProt Q6Q1S2 19-1296)
T2 sequence: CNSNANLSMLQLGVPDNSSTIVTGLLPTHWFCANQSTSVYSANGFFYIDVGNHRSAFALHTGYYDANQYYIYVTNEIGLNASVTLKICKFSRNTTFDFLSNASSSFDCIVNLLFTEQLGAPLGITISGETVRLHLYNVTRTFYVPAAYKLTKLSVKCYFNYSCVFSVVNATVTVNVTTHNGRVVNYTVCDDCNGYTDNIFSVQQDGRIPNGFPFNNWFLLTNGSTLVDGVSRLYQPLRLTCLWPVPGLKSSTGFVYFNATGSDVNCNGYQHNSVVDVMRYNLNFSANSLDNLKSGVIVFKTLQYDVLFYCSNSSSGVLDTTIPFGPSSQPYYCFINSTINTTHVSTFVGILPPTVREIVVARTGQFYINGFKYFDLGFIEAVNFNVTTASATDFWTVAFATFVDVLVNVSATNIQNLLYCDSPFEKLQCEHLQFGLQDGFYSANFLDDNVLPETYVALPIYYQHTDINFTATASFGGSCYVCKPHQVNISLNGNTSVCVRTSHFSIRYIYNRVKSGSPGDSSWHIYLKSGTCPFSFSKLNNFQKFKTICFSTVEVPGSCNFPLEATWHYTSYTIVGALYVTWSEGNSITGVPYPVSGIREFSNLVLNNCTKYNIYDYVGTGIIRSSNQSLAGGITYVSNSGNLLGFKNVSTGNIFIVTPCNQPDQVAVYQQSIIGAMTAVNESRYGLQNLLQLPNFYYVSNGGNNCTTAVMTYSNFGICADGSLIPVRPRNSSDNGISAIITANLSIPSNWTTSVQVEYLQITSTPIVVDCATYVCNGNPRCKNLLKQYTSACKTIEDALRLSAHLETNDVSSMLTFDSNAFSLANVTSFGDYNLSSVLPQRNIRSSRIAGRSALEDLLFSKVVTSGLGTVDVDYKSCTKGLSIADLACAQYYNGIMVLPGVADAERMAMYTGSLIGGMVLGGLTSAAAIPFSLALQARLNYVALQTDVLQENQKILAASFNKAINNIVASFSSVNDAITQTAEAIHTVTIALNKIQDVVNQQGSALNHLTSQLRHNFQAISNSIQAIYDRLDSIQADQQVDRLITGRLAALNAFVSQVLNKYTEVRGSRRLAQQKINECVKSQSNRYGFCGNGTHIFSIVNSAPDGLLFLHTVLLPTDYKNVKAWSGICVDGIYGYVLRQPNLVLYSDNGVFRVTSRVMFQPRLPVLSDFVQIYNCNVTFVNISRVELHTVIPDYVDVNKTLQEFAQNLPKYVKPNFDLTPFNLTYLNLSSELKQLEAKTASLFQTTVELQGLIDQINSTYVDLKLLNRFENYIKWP

Measured: binding result

B1: COV77-35 (antibody, V domains shown)
VH: QMQLQESGPGLVKPSQTLSLTCAVSGGSISSDGYYWNWVRQHPGKGLELIAYIYYNGRPYYNPSLRSRVNISLDTSMNQFSLRVKSLTAADTAVYYCARGRLGYCAAGSCFLDSFDYWGQGALVTVSS
VL: EIVMTQYPATLSVSPGETATLSCRASESISRNLAWYQQKPGQAPRLLIYGASTRATGIPARFSGSGSGTEFALTISSLQAEDFAVYSCQQYHNWLLTFGGGTKVEIK
no binding (tested: 200 µg/mL): all assays above

B2: COV77-14 (antibody, V domains shown)
VH: QVQLQESGPGLVKASQTLSLTCAVSGGSISSGDYYWTWIRSHPGKGLEWIAYIYYNGRTYYNPSLKSRLTISIDRSKNEFSLKVRSVTAADSAAYYCARGRLGFCAAGSCFLDSLDFWGQGTLVTVSS
VL: B1 VL with Y7S, T18R, A19V, R31N, T74I, A80S, S87F, H92Y
no binding (tested: 200 µg/mL): all assays above

B3: COV49-06 (antibody, V domains shown)
VH: EVQLLESGGGLVRPGGSLRLSCAASGFTFTNYAMSWVRQAPGKGLEWVSAISGGDGRTSYYADSVKGRFTSSRDNSKNTLYLQMNSLRAEDTAVYYCAKGAFYNILSSIIVEGDYWGQGTLVTVSS
VL: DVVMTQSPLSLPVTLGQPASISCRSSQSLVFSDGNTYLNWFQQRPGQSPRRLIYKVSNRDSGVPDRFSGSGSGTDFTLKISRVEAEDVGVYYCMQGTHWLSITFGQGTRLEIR
no binding (tested: 200 µg/mL): all assays above

B4: COV57-45 (antibody, V domains shown)
VH: QVQLVQSGTEVKKPGSSVKVSCRASGGTLSSYSVSWVRQAPGQGLEWMGRIIPILDKKTYAQKYQGRVTILADTSTSTVYMELSSLKSDDSAVYFCTTFDYDTSGQRDQHDYWGQGTPVTVSS
VL: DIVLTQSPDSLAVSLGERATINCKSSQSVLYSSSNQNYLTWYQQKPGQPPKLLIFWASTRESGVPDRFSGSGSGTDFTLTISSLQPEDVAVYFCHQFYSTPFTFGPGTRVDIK
no binding (tested: 200 µg/mL): all assays above

B5: COV57-19 (antibody, V domains shown)
VH: QVQLQESGPGLVKPSGTLSLTCAVSGDSISSSNWWSWVRQPPGKGLEWIGEIYQSGTTNNNPSLKSRVTISIDKSKNQFSLNLTSVTAADTAVYYCARAPLVFRSYGMDVWGQGTTVTVSS
VL: DIQMTQSPSSLSASVGDRVTITCRASQTIRTYLNWYQQKPGKAPKLLIYDASNLQSGVPSRFSGSGSGTDFTLTISSLEPEDFATYYCQQSYITPPWTFGQGTKVEIK
no binding (tested: 200 µg/mL): all assays above

B6: COV57-05 (antibody, V domains shown)
VH: B5 VH with Q5L, A23D, P41S
VL: B5 VL with K104R
no binding (tested: 200 µg/mL): all assays above

B7: COV49-28 (antibody, V domains shown)
VH: GVQLLESGGGLAQPGGSLKLSCVASGFSFNDYAMTWVRRPPGKGLEWVSAVSSGGQTSYSTDSVKGRFTISRDNSKNTLYLQMSSLRAEDTAIYYCVKGAFYNILSSIIVEGDYWGQGTLVTVSS
VL: GVVLTQSPLSLPVTLGQPASISCRSSQSLVFSDGKTYLNWFQQRPGQSPRRLIYQVSNRDPGVPDRFSGSGSGTDFTLKISRVEAEDVGVYYCMQGTHWLSITFGQGTRLEIK
no binding (tested: 200 µg/mL): all assays above

B8: COV49-30 (antibody, V domains shown)
VH: EVQLLESGGGLVQPGGSLRVSCTVSGFTFSDYSMSWVRQAPGKGLDWVSAISGTGETAYYADFVKGRFTSSRDNSKNTVYLQMNSLRGEDTAVYYCVKGVFYNILSSIIVEGDYWGQGTLVTVSS
VL: B7 VL with L4M, K35N, Q55K, N58K, P61S, K79T
no binding (tested: 200 µg/mL): all assays above

B9: COV49-18 (antibody, V domains shown)
VH: B8 VH with T23A, D31N, S33A, T54S, A58R, S70I, V79L, V100A
VL: B7 VL with G1D, L4M, K35N, Q55K, N58K, P61S
no binding (tested: 200 µg/mL): all assays above

B10: COV49-47 (antibody, V domains shown)
VH: EVQLLESGGGLAQPGGSLRLSCVASGFSFNDYAMAWVRQAPGKGLEWVSAVSGGGQTTYSTDSVKGRFTTSRDNSKNTLYLQMNGLRAEDAAVYYCVKGAFYNILSSIIVEGDNWGQGTLVTVSS
VL: B7 VL with K35N
no binding (tested: 200 µg/mL): all assays above

B11: COV49-33 (antibody, V domains shown)
VH: B10 VH with N30D, A35T, A40P, G85S, A88G, A91T, N114Y
VL: B7 VL with G1V, I21V, K35N
no binding (tested: 200 µg/mL): all assays above

B12: COV49-07 (antibody, V domains shown)
VH: B8 VH with D46E, V79L, S85T, V100A
VL: B7 VL with L4M, K35N, Q55K, N58E, P61S, K79T
no binding (tested: 200 µg/mL): all assays above
